The values that follow come from paper PMC10470544, “Pathogen-specific structural features of Candida albicans Ras1 activation complex: uncovering new antifungal drug targets” (mBio, 2023).

Test [1] has as its target T1, catalytic region of CaCdc25 (REM-CAT tandem) (Candida albicans, UniProt P43069).
T1 construct: PDB 7NZZ holds this construct; also called REM-CAT tandem of CaCdc25; catalytic region of the CaRas1 guanine nucleotide exchange factor CaCdc25
T1 sequence: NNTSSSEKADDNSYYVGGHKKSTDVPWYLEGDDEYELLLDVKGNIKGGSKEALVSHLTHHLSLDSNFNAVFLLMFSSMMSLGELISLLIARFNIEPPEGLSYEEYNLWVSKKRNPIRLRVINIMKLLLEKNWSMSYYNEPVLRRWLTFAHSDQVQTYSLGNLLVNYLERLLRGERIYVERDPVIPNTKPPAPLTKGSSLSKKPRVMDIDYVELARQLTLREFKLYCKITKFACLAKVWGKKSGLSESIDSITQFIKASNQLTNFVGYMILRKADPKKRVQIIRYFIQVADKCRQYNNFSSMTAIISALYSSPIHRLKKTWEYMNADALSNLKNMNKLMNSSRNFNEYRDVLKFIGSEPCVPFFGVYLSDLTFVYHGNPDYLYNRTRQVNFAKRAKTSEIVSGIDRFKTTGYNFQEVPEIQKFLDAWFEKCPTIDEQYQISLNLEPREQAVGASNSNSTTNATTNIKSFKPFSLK
As to the kind of experiment: ITC; recombinant CaCdc25 (REM-CAT tandem) titrated with CaRas1-FL or G-domain, MicroCal VP-ITC, single binding site model. The conditions noted are these: both partners purified. For orientation: Isothermal titration calorimetry measures the heat released or taken up as one component is titrated into another.

Test [2] deals with T1, catalytic region of CaCdc25 (REM-CAT …). The experiment in a line: SAXS; small angle X-ray scattering in solution, P12 beamline (EMBL, DESY), profiles extrapolated to infinite dilution; oligomeric state and stoichiometry deduced from the estimated masses (Table S1). Conditions: both partners purified.

B1: full-length Candida albicans Ras-like protein 1 (CaRas1-FL, 1–290) (natural protein)
chain: MLREYKLVVVGGGGVGKSALTIQLIQSHFVDEYDPTIEDSYRKQCTIDDQQVLLDVLDTAGQEEYSAMREQYMRTGEGFLLVYSINSLNSFQELNSFYDQILRVKDSDNVPVLVVGNKCDLEMERQVSYEDGLALANSFNCPFLETSAKQRINVEEAFYGLVRNINQYNAKIAEAEKQQQQQQQQQNANQQGQDQYGQQKDNQQSQFNNQINNNNNTSAVNGGVSSDGIIDQNGNGGVSSGQANLPNQSQSQSQRQQQQQQQEPQQQSENQFSGQKQSSSKSKNGCCVIV
notes: Ras-like protein 1 (CaRas1), Candida albicans, full-length protein, residues 1-290 (G-domain 1-166, hypervariable region 167-290); Monomeric in solution by SAXS; also called full-length CaRas1
As for B1, in test [1], the dissociation constant Kd (in general, the free concentration of one partner at which half of the binding sites on the other are occupied at equilibrium, for simple one-to-one binding) amounted to 9 µM. In addition, the stoichiometry N – broadly, a count of units in the complex or per binding partner – in test [2] was 1.

B2: isolated G-domain of CaRas1 (1–166) (domain or fragment)
chain: MLREYKLVVVGGGGVGKSALTIQLIQSHFVDEYDPTIEDSYRKQCTIDDQQVLLDVLDTAGQEEYSAMREQYMRTGEGFLLVYSINSLNSFQELNSFYDQILRVKDSDNVPVLVVGNKCDLEMERQVSYEDGLALANSFNCPFLETSAKQRINVEEAFYGLVRNIN
notes: Ras-like protein 1 (CaRas1), Candida albicans, GTPase domain (G-domain), residues 1-166; Monomeric in solution by SAXS; also called CaRas1 G-domain
With B2, the Kd in test [1] was determined as 9 µM. The “stoichiometry N” value in test [2] was 1.
